Assay results reported in US20240033341A1 (CALIFORNIA INSTITUTE OF TECHNOLOGY, published 2024).
Where a chain is given by its changes, count along the chain named.

How the values were obtained:
IGT2 SOSIP = biological target: T1, IGT2 SOSIP (HIV-1 (clade C strain 426c, engineered)); test: SPR with SOSIP (FIG. 6I), ELISA (FIG. 1E)
T1 construct: also called SOSIP version of IGT2

IGT2 gp120 [1] = biological target: T2, IGT2 gp120 (HIV-1 (clade C strain 426c, engineered)); test: ELISA, gp120 coated on the plate, IgG titrated
BG505 = test: Env ELISA, IgG dilution series on SOSIP trimer, area under the binding curve
CNE20 = biological target: T3, CNE20; test: as above
T3 construct: also called CNE20 SOSIP

CNE20 N276A = test: as above
IGT2 gp120 [2] = biological target: T2, IGT2 gp120; test: ELISA with gp120 (FIG. 1E, FIG. 6J)
426c.TM4 gp120 = 426c.TM4 gp120 (HIV-1 (clade C strain 426c, engineered)); test: ELISA, gp120 coated on the plate, IgG titrated
CE0217 (Autologous) = biological target: T4, CE0217 (Autologous); test: Env ELISA, IgG dilution series on SOSIP trimer, area under the binding curve
T4 construct: also called CE0217 SOSIP

B1: VRC01 iGL IgG (antibody, V domains shown)
VH: not shown
VL: EIVLTQSPATLSLSPGERATLSCRASQSVSSYLAWYQQKPGQAPRLLIYDASNRATGIPARFSGSGSGTDFTLTISSLEPEDFAVYYCQQYEFFGQGTKLEIKR
- binding result (IGT2 SOSIP): binds
- binding result (IGT2 gp120 [1]): binds

B2: IO-003 (antibody, V domains shown)
VH: QVQLVQSGAEVKKPGASVTVSCKASGYTFTDYFIHWVRQAPGQGLEWMGWINPFRGAVDYAQKFRGRVTMTRDTSITTAYMELSRLRSDDTAVYYCARAMFDSSDEWSPWHGLVAWGQGTLVTVSS
VL: QSALTQPASVSGSPGQSITISCTGTSRDIGSFNLVSWYQQHPGKAPKLMIYDVSKRPSGVSNRFSGSKSDNMASLIISGFQAEDEAEYFCCSFAGSLAFGGGTKLTVL
- binding result (BG505): binds
- binding result (CNE20): binds
- binding result (CNE20 N276A): binds

B3: 3BNC60 iGL IgG (antibody, V domains shown)
VH: not shown
VL: DIQMTQSPSSLSASVGDRVTITCQASQDISNYLNWYQQKPGKAPKLLIYDASNLETGVPSRFSGSGSGTDFTFTISSLQPEDIATYYCQQYEFIGPGTKVDIKR
- binding result (IGT2 gp120 [2]): binds
- binding result (IGT2 SOSIP): binds
- binding result (426c.TM4 gp120): binds

B4: IOMA IgG (antibody, V domains shown)
VH: EVQLVESGAQVKKPGASVTVSCTASGYKFTGYHMHWVRQAPGRGLEWMGWINPFRGAVKYPQNFRGRVSMTRDTSMEIFYMELSRLTSDDTAVYYCAREMFDSSADWSPWRGMVAWGQGTLVTVSS
VL: QSALTQPASVSGSPGQSITISCAGSSRDVGGFDLVSWYQQHPGKAPKLIIYEVNKRPSGISSRFSASKSGNTASLTISGLQEEDEAHYYCYSYADGVAFGGGTKLTVLG
notes: Mature CD4bs bNAb; also called mature IOMA
- binding result (BG505): binds
- binding result (CE0217 (Autologous)): binds
- binding result (CNE20): binds
- binding result (CNE20 N276A): binds

B5: IO-010 (antibody, V domains shown)
VH: QVQLVQSGAEVKKPGASVTVSCKASGYTFTGYHLHWVRQAPGQGLEWMGWINPFRGAIGYAQKFRGRVTMTRDTSIITAYMELRGLRSDDTAVYFCAREMFDSDDEWSPWRGMVAWGQGTLVTVSS
VL: QSALTQPASVSGSPGQSITISCTGTSSDIGGYNLVSWYQQHPGKAPKLMIYDVNKRPSGVSNRFSGSKSGNTASLTISGFQAEDEADYYCCSYADTLVFGGGTKLTVL
notes: also called 10-010
- binding result (BG505): binds
- binding result (CE0217 (Autologous)): binds
- binding result (CNE20): binds
- binding result (CNE20 N276A): binds

B6: IO-008 (antibody, V domains shown)
VH: QVQLVQSGAEVKKPGASVTVSCKASGYTFTGYELHWVRQAPGQGLEWMGWINPYRGAVKYAQKFQGRVTMTRDTSISTAYMVLNGLRSDDTAVYYCARDMFDSSDEWSPWRGMVAWGQGTPVTVSS
VL: B5 VL with I29V, G31S, N33D, D52E, N54S, F80L, T96S, L105V, V107G
- binding result (BG505): binds
- binding result (CNE20): binds
- binding result (CNE20 N276A): binds

B7: IO-050 (antibody, V domains shown)
VH: QVQLVQSGAEVKKPGASVRVSCKASGYTFTDYEIHWVRQAPGQGLEWMGWINPFRGAVKYRQKFQGRVTMTRDPSITTAYMELSRLRSDDTARYYCAREMFDSDDEWSPWRGMVAWGQGTLVTVSS
VL: B5 VL with I29V, G31S, D52E, N54S, K55R, V98I
- binding result (BG505): no binding
- binding result (CE0217 (Autologous)): binds
- binding result (CNE20): binds
- binding result (CNE20 N276A): binds

B8: IO-017 (antibody, V domains shown)
VH: B5 VH with I77N, E106D
VL: B5 VL with N33D
notes: also called 10-017
- binding result (CE0217 (Autologous)): binds
- binding result (CNE20): no binding
- binding result (CNE20 N276A): binds
